From US20250326841A1

Tests used:
[1] = target: mouse TIM-3, membrane bound (mouse) (UniProt Q8VIM0); assay: binding to activated mouse T cells, compared with TIM3.18 binding to human TIM-3; method not described
[2] = target: mouse TIM-3, membrane bound (mouse) (UniProt Q8VIM0); assay: binding to activated mouse T cells; method not described

mouse TIM-3, membrane bound (mouse), sequence (Q8VIM0 20-281): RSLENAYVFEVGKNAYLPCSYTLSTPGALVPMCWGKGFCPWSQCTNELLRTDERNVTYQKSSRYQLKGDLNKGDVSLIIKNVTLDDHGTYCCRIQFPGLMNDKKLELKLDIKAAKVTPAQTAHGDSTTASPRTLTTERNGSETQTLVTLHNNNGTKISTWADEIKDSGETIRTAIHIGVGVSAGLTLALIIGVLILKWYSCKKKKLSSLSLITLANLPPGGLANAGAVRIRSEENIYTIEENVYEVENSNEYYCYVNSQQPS

- fold weaker EC50 than TIM3.18 on human TIM-3 [1]: 17 fold
- EC50 [2]: 1.7 nM
Substance: RMT3-23, rat anti-mouse TIM-3 antibody (Bio-X-Cell)
